We go through eight substances from patent US20220280636A1.

For assay [1], the target named is guinea pig whole molecule IgG (guinea pig). Briefly: SPR; IgG amine coupled to CM5 chip, construct flowed at 750 ug/ml; end-point RU of association phase. On the technique in general: Surface plasmon resonance follows binding to a sensor surface in real time, without labels.
For assay [2], the target named is human IgG Fc (human). The description is as above.
For assay [3], the target named is human whole molecule IgG (human). Described as above.
The target of assay [4] is mouse whole molecule IgG (mouse). Described as above.
Assay [5] concerns the target rabbit whole molecule IgG (rabbit). The assay is described as above.
Assay [6] addresses human IgG Fc (human). Briefly: SPR; IgG amine-coupled to CM5 chip, construct flowed at 750 ug/ml; end-point RU of association phase.
The target in assay [7] is human whole molecule IgG (human). The assay is described as above.
Assay [8] concerns the target rabbit whole molecule IgG (rabbit). The description is as above.
Assay [9] concerns the target human IgG Fc (human). The description is as above. This is another data set of the same source.
Assay [10] addresses human whole molecule IgG (human). The description is as above. This is another data set of the same source.
Assay [11] deals with rabbit whole molecule IgG (rabbit). The assay is described as above. The source holds these as a separate data set.

For the substance gD-2t 339 (from UniProt Q69467 26-339), the RU Post Association stood at 2 RU in assay [1]; 4 RU with human IgG Fc (human) [2]; 2 RU in assay [3]; 4 RU in [4]; 11 RU in [5]; 2 RU with human IgG Fc (human) [6]. In addition, the RU Post Association was found to be 4 RU in assay [7]; 1 RU in assay [8]; 1 RU in the assay with human IgG Fc (human) [9]; 3 RU in assay [10]; 2 RU in [11].
As for “gE-1t 419/gI-1t 269 (from UniProt P04488 21-419; P06487 21-276)”, the RU Post Association was found to be 19 RU in assay [1]; 216 RU in the assay with human IgG Fc (human) [2]; 232 RU in assay [3]; 11 RU in assay [4]; 195 RU in assay [5].
As to “gE-2t 24-405 (from UniProt P89475 23-402)”, the RU Post Association came out at 5 RU in [1]; 8 RU with human IgG Fc (human) [2]; 7 RU in assay [3]; 4 RU in assay [4]; 6 RU in assay [5].
Turning to “gE-2t 24-405/gI-2t 262 (from UniProt P89475 23-402; P06764 21-262)”, the RU Post Association in assay [1] is 8 RU; with human IgG Fc (human) [2], 95 RU; in assay [3] it was 136 RU; in [4] it was 6 RU; in assay [5], 142 RU.
Taken in the same sequence, the figures for gE-2t 405 (from UniProt P89475 21-402) were 5 RU, 5 RU, 8 RU, 4 RU and 6 RU.
Regarding “gE-2t 405/gI-2t 262 (from UniProt P89475 21-402; P06764 21-262)”, the RU Post Association in assay [1] turned out to be 9 RU; with human IgG Fc (human) [2] it was 100 RU; in [3] it was 142 RU; in assay [4] it was 8 RU; in assay [5] it was 165 RU.
With “gE-2t 414/gI-2t 262 (from UniProt P89475 21-411; P06764 21-262)”, the RU Post Association in [1] turned out to be 4 RU; with human IgG Fc (human) [2], 53 RU; in assay [3] it was 79 RU; in [4], 5 RU; in assay [5] it was 75 RU.
With “gE-2t 417/gI-2t 262 (from UniProt P89475 21-414; P06764 21-262)”, the RU Post Association in assay [1] was determined as 9 RU; in the assay with human IgG Fc (human) [2], 41 RU; in assay [3], 52 RU; in [4] it was 10 RU; in [5] it was 46 RU; in the assay with human IgG Fc (human) [6], 98 RU. The RU Post Association in [7] was 133 RU; in [8], 138 RU; in the assay with human IgG Fc (human) [9] it was 43 RU; in assay [10] it was 53 RU; in assay [11], 45 RU.
